Data on two molecules can be found in publication PMC4575080, “Biophysical Studies on BEX3, the p75^NTR-Associated Cell Death Executor, Reveal a High-Order Oligomer with Partially Folded Regions” (PLoS ONE, 2015).

B2: Brain Expressed X-linked protein 3 (BEX3) (natural protein, UniProt Q9WTZ9 1-124, looked up)
chain: MANVHQENEEMEQPLQNGQEDRPVGGGEGHQPAANNNNNNHNHNHNHHRRGQARRLAPNFRWAIPNRQMNDGLGGDGDDMEMFMEEMREIRRKLRELQLRNCLRILMGELSNHHDHHDEFCLMP
notes: BEX3 (NADE), cDNA encoding 'the mature BEX3' in pET21d; UniProt Q9WTZ9 is printed in the introduction for BEX3; High-order oligomer in native buffer; also called NADE; p75NTR-associated cell death executor

In data set [1] the target is B2. As to the kind of experiment: SPR; p75NTR DD (13 uM) amine-coupled to a CM5 chip (4,000 RU), Biacore X; BEX3 0.2-0.8 uM injected in Buffer A (25 mM MES pH 7.0, 150 mM NaCl, 6 mM beta-ME), 10 uL/min; global fit; apparent Kd = koff/kon. As to conditions: both partners purified. Background: Surface plasmon resonance follows binding to a sensor surface in real time, without labels.

Data set [2] deals with the molecule itself. As to the kind of experiment: SDS-PAGE (SDS-resistant oligomer); refolded BEX3 on SDS-PAGE, before and after addition of 4 or 7 M urea to the sample loading buffer.

B1: death domain of p75NTR (amino acids 326 to 417) (domain or fragment, UniProt Q9Z0W1 326-417, looked up)
chain: TASGQALKGDGNLYSSLPLTKREEVEKLLNGDTWRHLAGELGYQPEHIDSFTHEACPVRALLASWGAQDSATLDALLAALRRIQRADIVESL
notes: neurotrophin receptor p75 (p75NTR), death domain, amino acids 326 to 417; UniProt Q9Z0W1 is printed in the introduction for p75NTR; For some experiments the His-tag was removed with TEV protease; also called p75NTR DD; His-p75NTR DD
Consider B1, for which the Kd in data set [1] was 550 nM.
What is called stoichiometry N is the number of molecules, sites or subunits per partner or assembly. Take B2: in data set [2], the “stoichiometry N” value worked out at 2.
